Results as given in patent publication US20240041987A1, “NOVEL BIOACTIVE PEPTIDE COMBINATIONS AND USES THEREOF” (COLZYX AB, priority 2020, published 2024).
Like-named read-outs stand apart in the source and are kept apart here.

How the values were obtained:
[1] = tested on: microorganisms; settings: cited from earlier work
[2] = tested on: wound healing; settings: cited from earlier work
[3] = 25 ± 2° C./60% RH ± 5%, 1 month
[4] = 25 ± 2° C./60% RH ± 5%, 3 months

QAPVLDAIRRLRLRGGSPLN (QAP20) [collagen VI derived polypeptide]
Antimicrobial activity? [1]: Yes

EQNFHKARRFVEQVARRLTL (EQN20) [collagen VI derived polypeptide]
Antimicrobial activity? [1]: Yes

FFLKDFSTKRQIIDAINKVVYKGGR (FFL25) [collagen VI derived polypeptide]
Antimicrobial activity? [1]: Yes | Wound healing activity? [2]: have wound healing properties and Yes

GFAHIRDFVSRIVRRLNIGP (GFA20) [collagen VI derived polypeptide]
Antimicrobial activity? [1]: Yes

GVRPDGFAHIRDFVSRIVRRLNIGPSKV (GVR28) [peptide derived from collagen VI alpha-3 chain]
Appearance (25 ± 2° C./60% RH ± 5%, 0 D): White powder | Identity (RP-HPLC) (25 ± 2° C./60% RH ± 5%, 0 D): Retention Time Conforms | Purity (RP-HPLC) (25 ± 2° C./60% RH ± 5%, 0 D): 98.1% | Related Impurities (by RRT), Specified Impurity %: RRT = 0.80*, RRT = 0.81* Total (25 ± 2° C./60% RH ± 5%, 0 D): 0.07% | Related Impurities (by RRT), Specified Impurity %: RRT = 0.96* (25 ± 2° C./60% RH ± 5%, 0 D): 0.38% | Related Impurities (by RRT), Specified Impurity %: RRT = 1.04 (25 ± 2° C./60% RH ± 5%, 0 D): 0.56% | Related Impurities (by RRT), Specified Impurity %: RRT = 1.13* (25 ± 2° C./60% RH ± 5%, 0 D): 0.22% | Unspecified Impurity % (Report ≥0.10%): RRT = 0.94 (25 ± 2° C./60% RH ± 5%, 0 D): 0.15% | Unspecified Impurity % (Report ≥0.10%): RRT = 1.09 (25 ± 2° C./60% RH ± 5%, 0 D): 0.32% | Unspecified Impurity % ≤0.50% (25 ± 2° C./60% RH ± 5%, 0 D): Conforms | Water Content (KF) (25 ± 2° C./60% RH ± 5%, 0 D): 4.2% | Appearance [3]: White powder | Identity (RP-HPLC) [3]: Retention Time Conforms | Purity (RP-HPLC) [3]: 97.7% | Related Impurities (by RRT), Specified Impurity %: RRT = 0.82* [3]: 0.07% | Related Impurities (by RRT), Specified Impurity %: RRT = 0.97 [3]: 0.40% | Related Impurities (by RRT), Specified Impurity %: RRT = 1.04 [3]: 0.57% | Related Impurities (by RRT), Specified Impurity %: RRT = 1.12 [3]: 0.49% | Unspecified Impurity % (Report ≥0.10%): RRT = 0.95 [3]: 0.16% | Unspecified Impurity % (Report ≥0.10%): RRT = 1.08 [3]: 0.32% | Unspecified Impurity % ≤0.50% [3]: Conforms | Water Content (KF) [3]: 3.9% | Appearance [4]: White powder | Identity (RP-HPLC) [4]: Retention Time Conforms | Purity (RP-HPLC) [4]: 97.3% | Related Impurities (by RRT), Specified Impurity %: RRT = 0.83* [4]: 0.12% | Related Impurities (by RRT), Specified Impurity %: RRT = 0.97 [4]: 0.41% | Related Impurities (by RRT), Specified Impurity %: RRT = 1.04 [4]: 0.56% | Related Impurities (by RRT), Specified Impurity %: RRT = 1.12 [4]: 0.77% | Unspecified Impurity % (Report ≥0.10%): RRT = 0.95 [4]: 0.17% | Unspecified Impurity % (Report ≥0.10%): RRT = 1.08 [4]: 0.32% | Unspecified Impurity % ≤0.50% [4]: conforms | Water Content (KF) [4]: 3.9% | change in purity during the initial 3 months (stored at 25° C.): slight decrease in purity | Appearance (−20 ± 5° C., 0 D): White powder | Identity (RP-HPLC) (−20 ± 5° C., 0 D): Retention Time Conforms | Purity (RP-HPLC) (−20 ± 5° C., 0 D): 98.10% | Related Impurities (by RRT), Specified Impurity %: RRT = 0.80*, RRT = 0.81* Total (−20 ± 5° C., 0 D): 0.07% | Related Impurities (by RRT), Specified Impurity %: RRT = 0.96* (−20 ± 5° C., 0 D): 0.38% | Related Impurities (by RRT), Specified Impurity %: RRT = 1.04 (−20 ± 5° C., 0 D): 0.56% | Related Impurities (by RRT), Specified Impurity %: RRT = 1.13* (−20 ± 5° C., 0 D): 0.22% | Unspecified Impurity % (Report ≥0.10%): RRT = 0.94 (−20 ± 5° C., 0 D): 0.15% | Unspecified Impurity % (Report ≥0.10%): RRT = 1.09 (−20 ± 5° C., 0 D): 0.32% | Unspecified Impurity % ≤0.50% (−20 ± 5° C., 0 D): conforms | Water Content (KF) (−20 ± 5° C., 0 D): 4.2% | Appearance (−20 ± 5° C., 3 months): White powder | Identity (RP-HPLC) (−20 ± 5° C., 3 months): Retention Time Conforms | Purity (RP-HPLC) (−20 ± 5° C., 3 months): 98.10% | Related Impurities (by RRT), Specified Impurity %: RRT = 0.83* (−20 ± 5° C., 3 months): 0.04% | Related Impurities (by RRT), Specified Impurity %: RRT = 0.97 (−20 ± 5° C., 3 months): 0.38% | Related Impurities (by RRT), Specified Impurity %: RRT = 1.04 (−20 ± 5° C., 3 months): 0.54% | Related Impurities (by RRT), Specified Impurity %: RRT = 1.12 (−20 ± 5° C., 3 months): 0.20% | Unspecified Impurity % (Report ≥0.10%): RRT = 0.95 (−20 ± 5° C., 3 months): 0.17% | Unspecified Impurity % (Report ≥0.10%): RRT = 1.08 (−20 ± 5° C., 3 months): 0.31% | Unspecified Impurity % ≤0.50% (−20 ± 5° C., 3 months): conforms | Water Content (KF) (−20 ± 5° C., 3 months): 1.8% | Antimicrobial activity? [1]: Yes | Wound healing activity? [2]: have wound healing properties and Yes

AAKPVATKPEVPRPQAAKPA (AAK20) [collagen VI derived polypeptide]
Antimicrobial activity? [1]: Yes

VTTEIRFADSKRKSVLLDKIKNLQVALTSK (VTT30) [collagen VI derived polypeptide]
Antimicrobial activity? [1]: Yes | Wound healing activity? [2]: have wound healing properties and Yes

SFVARNTFKRVRNGFLMRKVAVFFSNTPTRASP (SFV33) [peptide derived from collagen VI alpha-3 chain]
Appearance (25 ± 2° C./60% RH ± 5%, 0 D): White powder | Identity (RP-HPLC) (25 ± 2° C./60% RH ± 5%, 0 D): Retention Time Conforms | Impurity (Report all ≥0.10%): RRT = 0.65 (25 ± 2° C./60% RH ± 5%, 0 D): 0.17% | Impurity (Report all ≥0.10%): RRT = 1.02 (25 ± 2° C./60% RH ± 5%, 0 D): 0.23% | No other individual impurity ≥0.50% (25 ± 2° C./60% RH ± 5%, 0 D): conforms | Purity (RP-HPLC) (25 ± 2° C./60% RH ± 5%, 0 D): 98.1% | Related Impurities (by RRT), Specified Impurity %: RRT = 0.90 (25 ± 2° C./60% RH ± 5%, 0 D): 0.26% | Related Impurities (by RRT), Specified Impurity %: RRT = 0.95 (25 ± 2° C./60% RH ± 5%, 0 D): 0.14% | Related Impurities (by RRT), Specified Impurity %: RRT = 0.97 (25 ± 2° C./60% RH ± 5%, 0 D): 0.47% | Water Content (KF) (25 ± 2° C./60% RH ± 5%, 0 D): 4.7% | Appearance [3]: White powder | Identity (RP-HPLC) [3]: Retention Time Conforms | Impurity (Report all ≥0.10%): RRT = 0.66 [3]: 0.13% | Impurity (Report all ≥0.10%): RRT = 0.85 [3]: 0.11% | Impurity (Report all ≥0.10%): RRT = 1.02 [3]: 0.31% | Impurity (Report all ≥0.10%): RRT = 1.04 [3]: 0.17% | Impurity (Report all ≥0.10%): RRT = 1.08 [3]: 0.24% | No other individual impurity ≥0.50% [3]: conforms | Purity (RP-HPLC) [3]: 97.8% | Related Impurities (by RRT), Specified Impurity %: RRT = 0.90 [3]: 0.24% | Related Impurities (by RRT), Specified Impurity %: RRT = 0.95 [3]: 0.13% | Related Impurities (by RRT), Specified Impurity %: RRT = 0.97 [3]: 0.47% | Water Content (KF) [3]: 6.8% | Appearance [4]: White powder | Identity (RP-HPLC) [4]: Retention Time Conforms | Impurity (Report all ≥0.10%): RRT = 0.62 [4]: 0.15% | Impurity (Report all ≥0.10%): RRT = 0.84 [4]: 0.28% | No other individual impurity ≥0.50% [4]: Not conforms * | Purity (RP-HPLC) [4]: 96.9% | Related Impurities (by RRT), Specified Impurity %: RRT = 0.90 [4]: 0.20% | Related Impurities (by RRT), Specified Impurity %: RRT = 0.95 [4]: 0.09% | Related Impurities (by RRT), Specified Impurity %: RRT = 0.97 [4]: 0.42% | Water Content (KF) [4]: 8.4% | change in purity during the initial 3 months (stored at 25° C.): slight decrease in purity | new impurities (stored at 25° C., at 3 months): some new impurities were detected | change of water content (stored at 25° C., over the 3 months): increased | Appearance (−20 ± 5° C., 0 D): White powder | Identity (RP-HPLC) (−20 ± 5° C., 0 D): Retention Time Conforms | Impurity (Report all ≥0.10%): RRT = 0.65 (−20 ± 5° C., 0 D): 0.17% | Impurity (Report all ≥0.10%): RRT = 1.02 (−20 ± 5° C., 0 D): 0.23% | No other individual impurity ≥0.50% (−20 ± 5° C., 0 D): conforms | Purity (RP-HPLC) (−20 ± 5° C., 0 D): 98.1% | Related Impurities (by RRT), Specified Impurity %: RRT = 0.90 (−20 ± 5° C., 0 D): 0.26% | Related Impurities (by RRT), Specified Impurity %: RRT = 0.95 (−20 ± 5° C., 0 D): 0.14% | Related Impurities (by RRT), Specified Impurity %: RRT = 0.97 (−20 ± 5° C., 0 D): 0.47% | Water Content (KF) (−20 ± 5° C., 0 D): 4.7% | Appearance (−20 ± 5° C., 1 month): White powder | Identity (RP-HPLC) (−20 ± 5° C., 1 month): Retention Time Conforms | Impurity (Report all ≥0.10%): RRT = 1.03 (−20 ± 5° C., 1 month): 0.24% | No other individual impurity ≥0.50% (−20 ± 5° C., 1 month): conforms | Purity (RP-HPLC) (−20 ± 5° C., 1 month): 98.3% | Related Impurities (by RRT), Specified Impurity %: RRT = 0.90 (−20 ± 5° C., 1 month): 0.23% | Related Impurities (by RRT), Specified Impurity %: RRT = 0.95 (−20 ± 5° C., 1 month): 0.10% | Related Impurities (by RRT), Specified Impurity %: RRT = 0.98 (−20 ± 5° C., 1 month): 0.44% | Water Content (KF) (−20 ± 5° C., 1 month): 4.9% | Antimicrobial activity? [1]: Yes | Wound healing activity? [2]: No

YDRLIKESRRQKTRVFAVVI (YDR20) [collagen VI derived polypeptide]
Antimicrobial activity? [1]: Yes

RDALKSSVDAVKYFGKGTYT (RDA20) [collagen VI derived polypeptide]
Antimicrobial activity? [1]: Yes

FYLKTYRSQAPVLDAIRRLRLRGGS (FYL25) [collagen VI derived polypeptide]
Antimicrobial activity? [1]: Yes | Wound healing activity? [2]: have wound healing properties and Yes

DVNVFAIGVEDADEGALKEIASEPLNMHMFNL (DVN32) [collagen VI derived polypeptide]
Antimicrobial activity? [1]: No | Wound healing activity? [2]: No

TTKPVTTTKPVTTTTKPVTT (TTK20) [collagen VI derived polypeptide]
Antimicrobial activity? [1]: Yes

FTKRFIDNLRDRYYRCDRNL (FTK20) [collagen VI derived polypeptide]
Antimicrobial activity? [1]: Yes

KGFESKVDAILNRISQMHRV (KGF20) [collagen VI derived polypeptide]
Antimicrobial activity? [1]: Yes

TKRFAKRLAERFLTAGRTDP (TKR20) [collagen VI derived polypeptide]
Antimicrobial activity? [1]: Yes

VAAKPVATKMAVRPPVAVKP (VAA20) [collagen VI derived polypeptide]
Antimicrobial activity? [1]: Yes

VVHAINAIVRSPRGGARRHA (VVH20) [collagen VI derived polypeptide]
Antimicrobial activity? [1]: Yes

KPEILNLVKRMKIKTGKALN (KPE20) [collagen VI derived polypeptide]
Antimicrobial activity? [1]: Yes

RKVAVFFSNTPTRASPQLRE (RKV20) [collagen VI derived polypeptide]
Antimicrobial activity? [1]: Yes

LRLKPYGALVDKVKSFTKRF (LRL20) [collagen VI derived polypeptide]
Antimicrobial activity? [1]: Yes

TSSPTSNPVTTTKPVTTTKPVTTTTKPVTTTTKPVT (TSS36) [collagen VI derived polypeptide]
Antimicrobial activity? [1]: Yes

B1: AAAKPAPAKPVAAKPVATKMATVRPPVAVKPATAAKPVAAKPAAVRPPAAAAAKPVATKPEVPRPQAAKPAATKPA (peptide)
chain: AAAKPAPAKPVAAKPVATKMATVRPPVAVKPATAAKPVAAKPAAVRPPAAAAAKPVATKPEVPRPQAAKPAATKPA
modifications: AAA76
notes: collagen VI derived polypeptide
Antimicrobial activity? [1]: Yes
